Reference: patent US20230025280A1, “PH RESPONSIVE COMPOSITIONS, FORMULATIONS, AND METHODS OF IMAGING A TUMOR” (ONCONANO MEDICINE, INC, priority 2019, published 2023)
Values joined by “and” are separate entries in the source; they are usually repeats but may differ in a detail not shown here. Identical values can stand only once.

Test: Phase 1 (1a/1b) pharmacokinetics: plasma concentrations after single IV dose (validated direct fluorescence reader assay), noncompartmental analysis
Assay type: in vivo, human
Details: 1.2 mg/kg
From the text: Phase 1 is a single-Principal Investigator, non-randomized, open-label, single-arm, cross-sectional study to evaluate the safety, PK profile, and imaging feasibility of Compound 1 in patients with solid cancers who require surgical excision. The main purpose of this study was to investigate the safety, PK, and feasibility of Compound 1 as an intra-operative optical imaging agent to detect tumors and metastatic lymph nodes in solid cancers. The study was intended to investigate the optimal dose range of Compound 1 for an adequate TBR and CNR of fluorescence obtained intraoperatively at 24 (±8) hours post dosing and with ex vivo specimens using ICG compatible cameras and imaging devices.
Phase 1 enrolled 30 patients with solid cancers (HNSCC, breast cancer, esophageal cancer, or colorectal cancer) who have a biopsy-confirmed diagnosis of respective tumor types and are scheduled to undergo surgical resection of the tumor. The study design included a standard 3+3 design for the dose-escalation portion (Phase 1a; N=18 maximum) followed by a dose-expansion portion (Phase 1b; N=15). All patients received a single I.V. dose of Compound 1, followed by routine surgery approximately 24 hours after infusion of Compound 1.
Phase 1a was a dose-finding study performed in 5 cohorts of 3 patients each. The dose levels evaluated were […], and 1.2 mg/kg, in this sequence. Inter-cohort dose escalation took place after the last patient in the previous cohort completed the Day 10 safety assessment. Safety, PK, and imaging feasibility were evaluated in both the Phase 1a and 1b portions of the study. Patient safety is assessed during the study and for up to 10 days post-dose.
Study design: Single Compound 1 IV dose was administered as a 1-5 minute IV infusion to patients in five cohorts (0.1, 0.3, 0.5, 0.8, and 1.2 mg/kg) with three patients per cohort in Phase 1a and 15 patients at a dose of 1.2 mg/kg in Phase 1b. Patient demographic information including tumor types is presented in Table 4 and 5 for Phase 1a and Table 5 for Phase 1b. Intertek Pharmaceutical Services (San Diego, Calif.) determined Compound 1 plasma concentrations using a validated direct fluorescence reader assay. Pacific BioDevelopment (Davis, Calif.) performed the PK analysis.
Sample collection: Blood samples were collected prior to infusion and at 10 minutes and 0.5, 1, 3, 8, 24, 48, 72, and 240 hours after infusion.
Analysis: Plasma concentration versus time profiles were generated for each patient. Pharmacokinetic parameters were estimated using Phoenix WinNonlin (version 8.0). According to SOP, concentrations reported as BQL were set to 0 except for the 0.5 h sample for subject #ON1102, which was set to LLOQ/2 ([…] value used in parameter calculations) and the 24 and 48 h samples.
If the coefficient of determination for the terminal slope estimation was less than 0.8, T1/2 was not reported (NR). AUC extrapolated to infinity is not reported for any data set because in all cases the % extrapolated AUC was greater than 20% and thus the AUCinf estimate would not be reliable. The concentration at 10 minutes, the first time point measured (C10m), was also reported for each patient.
The area under the plasma concentration versus time curves from dosing to the last time point with a measurable concentration (AUClast) was estimated by the linear trapezoid method. The last three or more time points were used to estimate the elimination rate constant (λz) which was used to estimate the terminal-phase half-life (T1/2) and AUC from zero to infinity (AUCINF) from the following equations: […]

In the case of “PEO90-140-b-P(DBA60-150-r-ICG0-3-r-AMA0-3) [Compound 1]”, the “Differences in pharmacokinetic parameters based on tumor type” value (Phase 1a and Phase 1b) is reported as “no apparent differences”, the T1/2 (ALL cancer types, Mean, N 16) is reported as 44.5 h and the AUC0-24 hr (ALL cancer types, Mean, N 18) is reported as 615 µg·h/mL. For the same substance, the AUCall (ALL cancer types, Mean, N 18) was 1670 µg·h/mL, the AUClast (ALL cancer types, Mean, N 18) was 1100 µg·h/mL and the C10 m (ALL cancer types, Mean, N 18) was 33.0 µg/mL. For the same substance, the Cmax (ALL cancer types, Mean, N 18) was 34.3 µg/mL, the Tmax (ALL cancer types, Mean, N 18) was 50 min and the T1/2 (ALL cancer types, Median, N 16) was 40.5 h. For the same substance, the AUC0-24 hr (ALL cancer types, Median, N 18) was 615 µg·h/mL, the AUCall (ALL cancer types, Median, N 18) was 1170 µg·h/mL and the AUClast (ALL cancer types, Median, N 18) was 997 µg·h/mL. It also gave a C10 m (ALL cancer types, Median, N 18) of 32.4 µg/mL, a Cmax (ALL cancer types, Median, N 18) of 33.6 µg/mL and a Tmax (ALL cancer types, Median, N 18) of 30 min. It also gave an AUC0-24 hr (BC, Mean, N 5) of 592 µg·h/mL, an AUCall (BC, Mean, N 5) of 1730 µg·h/mL and an AUClast (BC, Mean, N 5) of 1150 µg·h/mL. For the same substance, the C10 m (BC, Mean, N 5) was 31.2 µg/mL, the Cmax (BC, Mean, N 5) was 32.9 µg/mL and the T1/2 (BC, Mean, N 5) was 51.0 h. For the same substance, the Tmax (BC, Mean, N 5) was 38 min, the AUC0-24 hr (BC, Median, N 5) was 574 µg·h/mL and the AUCall (BC, Median, N 5) was 1170 µg·h/mL. For the same substance, the AUClast (BC, Median, N 5) was 1020 µg·h/mL, the C10 m (BC, Median, N 5) was 33.0 µg/mL and the Cmax (BC, Median, N 5) was 33.0 µg/mL. The T1/2 (BC, Median, N 5) was 45.5 h, the Tmax (BC, Median, N 5) was 30 min and the AUC0-24 hr (BC, individual subjects) was 630 µg·h/mL and 693 µg·h/mL and 574 µg·h/mL and 562 µg·h/mL and 502 µg·h/mL. The AUCall (BC, individual subjects) was 1170 µg·h/mL and 3190 µg·h/mL and 1020 µg·h/mL and 1120 µg·h/mL and 2120 µg·h/mL, the AUClast (BC, individual subjects) was 1020 µg·h/mL and 1740 µg·h/mL and 891 µg·h/mL and 968 µg·h/mL and 1110 µg·h/mL and the C10 m (BC, individual subjects) was 36.5 μg/mL and 33.0 μg/mL (2×) and 28.0 μg/mL and 25.5 μg/mL. The Cmax (BC, individual subjects) was 37.7 µg/mL and 34.3 µg/mL and 33.0 µg/mL and 32.0 µg/mL and 27.6 µg/mL, the T1/2 (BC, individual subjects) was 34.5 h and 83.0 h and 30.6 h and 45.5 h and 61.4 h and the Tmax (BC, individual subjects) was 60 min and 10.2 min and 30 min. The AUC0-24 hr (CRC, Mean, N 3) was 677 µg·h/mL, the AUCall (CRC, Mean, N 3) was 1790 µg·h/mL and the AUClast (CRC, Mean, N 3) was 1150 µg·h/mL. The C10 m (CRC, Mean, N 3) was 35.5 µg/mL, the Cmax (CRC, Mean, N 3) was 36.4 µg/mL and the T1/2 (CRC, Mean, N 3) was 46.3 h. It also gave a Tmax (CRC, Mean, N 3) of 33.4 min, an AUC0-24 hr (CRC, Median, N 3) of 684 µg·h/mL and an AUCall (CRC, Median, N 3) of 1090 µg·h/mL. For the same substance, the AUClast (CRC, Median, N 3) was 971 µg·h/mL, the C10 m (CRC, Median, N 3) was 35.8 µg/mL and the Cmax (CRC, Median, N 3) was 36.4 µg/mL. For the same substance, the T1/2 (CRC, Median, N 3) was 33.4 h, the Tmax (CRC, Median, N 3) was 30 min and the AUC0-24 hr (CRC, individual subjects) was 721 µg·h/mL and 684 µg·h/mL and 626 µg·h/mL. The AUCall (CRC, individual subjects) was 3350 µg·h/mL and 939 µg·h/mL and 1090 µg·h/mL, the AUClast (CRC, individual subjects) was 1780 µg·h/mL and 684 µg·h/mL and 971 µg·h/mL and the C10 m (CRC, individual subjects) was 38.6 µg/mL and 32.1 µg/mL and 35.8 µg/mL. For the same substance, the Cmax (CRC, individual subjects) was 38.6 µg/mL and 34.1 µg/mL and 36.4 µg/mL, the T1/2 (CRC, individual subjects) was 77.9 h and 33.4 h and 27.7 h and the Tmax (CRC, individual subjects) was 10.2 min and 60 min and 30 min. It also gave an AUC0-24 hr (EC, Mean, N 3) of 659 µg·h/mL, an AUCall (EC, Mean, N 3) of 1570 µg·h/mL and an AUClast (EC, Mean, N 3) of 1170 µg·h/mL. The C10 m (EC, Mean, N 3) was 34.7 µg/mL, the Cmax (EC, Mean, N 3) was 35.8 µg/mL and the T1/2 (EC, Mean, N 3) was 37.1 h. For the same substance, the Tmax (EC, Mean, N 3) was 43.4 min, the AUC0-24 hr (EC, Median, N 3) was 606 µg·h/mL and the AUCall (EC, Median, N 3) was 1460 µg·h/mL. The AUClast (EC, Median, N 3) was 1270 µg·h/mL, the C10 m (EC, Median, N 3) was 32.6 µg/mL and the Cmax (EC, Median, N 3) was 32.6 µg/mL. For the same substance, the T1/2 (EC, Median, N 3) was 34.4 h, the Tmax (EC, Median, N 3) was 60 min and the AUC0-24 hr (EC, individual subjects) was 606 µg·h/mL and 787 µg·h/mL and 585 µg·h/mL. For the same substance, the AUCall (EC, individual subjects) was 2150 µg·h/mL and 1460 µg·h/mL and 1100 µg·h/mL, the AUClast (EC, individual subjects) was 1280 µg·h/mL and 1270 µg·h/mL and 961 µg·h/mL and the C10 m (EC, individual subjects) was 31.4 µg/mL and 40.0 µg/mL and 32.6 µg/mL. The Cmax (EC, individual subjects) was 32.6 µg/mL and 42.2 µg/mL, the T1/2 (EC, individual subjects) was 43.3 h and 34.4 h and 33.6 h and the Tmax (EC, individual subjects) was 60 min and 10.2 min. The T1/2 (HNSCC, Mean, N 5) was 41.4 h, the AUC0-24 hr (HNSCC, Mean, N 7) was 585 µg·h/mL and the AUCall (HNSCC, Mean, N 7) was 1620 µg·h/mL. The AUClast (HNSCC, Mean, N 7) was 1020 µg·h/mL and the C10 m (HNSCC, Mean, N 7) was 32.5 µg/mL.
